The values below come from KR20200072008A.

Numbering of substitutions follows the chain as printed.

Sequences and labels used below:
B1: D2 (antibody, V domains shown)
VH: DVKLQESGPGLVKPSQSLSLTCSVTGYSITSGYYWNWIRQFPGNKLEWMGYIRYDGSNNYNPSLKNRISITRDTSKNQFFLKLNSVTTEDTASYYCARDRDSSYYFDYWGQGTALTVSS
VL: DIVMTQSSSYLSVSLGGRVTITCKASDHINNWLAWYQQKPGNAPRLLISDTTSLETGVPSRFSGSGSGKDYTLSITSLQTEDVATYYCQQYWSAPPTFGGGTKLEIK
B2: C4 (antibody, V domains shown)
VH: DVKLQESGPGLVKPSQSLSLTCTVTGYSITSDYAWNWIRQFPGNKLEWMGYISYSVGTRYNPSLKSRISITRDTSKNQFFLLLKSVTNEDTATYFCARKGEYGFAYWGQGTLVTVSA
VL: DIVMTQSPASLAVSLGQRATISCRASKSVSTSGYSYMHWYQQKPGQPPKLLIYLASNLESGVPARFSGSGSGTDFTLNIHPVEEEDAATYYCQHSRELPLTFGAGTKLELK
B3: C24 (antibody, V domains shown)
VH: EVKLVESGGGLVQPKGSLKLSCAASGYTFNTYAMNWVRQAPGKGLEWVARIRSKSNNYTTYYADSVKDRFTISRDDSQSMLYLQINNLKTEDTAMYYCVGQILYYYVGSPAWFAYWGQGTLVTVSA
VL: B2 VL with Y53F, L100W, A104G, L110I
B4: C14 (antibody, V domains shown)
VH: EVKLVESGGGLVQPKGSLKLSCAASGFTFNTNAMNWVRQAPGKGLEWVARIRSKSDNYATYYADSVKDRFTISRDDSPSMLYLQMNNLKTEDTAMYYCVYGRSYGGLGYWGQGTLVTVSA
VL: B2 VL with M4L, M37V
B5: C7 (antibody, V domains shown)
VH: B4 VH with E1Q, K3Q, S7T, D56N, P78Q, M80L, G108S
VL: B2 VL with T31S
B6: C16 (antibody, V domains shown)
VH: EVQLQQSGAELARPGASVQMSCKAFGYTFTNYTMHWVRQRPGQGLEWIGFINPSSDYTNYNQKFKDKATLSADKSSSTAYMQLSSLTSEDSAVYYCARRIFYNGRTYAAMDYWGQGTSVTVSS
VL: B2 VL with T31S
B7: D3 (antibody, V domains shown)
VH: EVQLEESGGGLVQPGGSLKLSCAASGFTFSNYGMSWVRQTPDKRLELVATINSNGGTTYYPDSVKGRFTISRDNAKNTLYLQMSSLKSEDSAMYYCARDRDAMDYWGQGTSVTVSS
VL: DVLMTQTPLSLPVSLGDQASISCRSSQSIVNSHGNTYLEWYLQKPGQSPKLLIYKVSNRFSGVPDRFSGSGSGTDFTLKISRVEAEDLGVYYCFQGSHVPWTFGGGTKLEIK
B8: B4 (antibody, V domains shown)
VH: EVKLVESGGGLVKPGGSLKLSCAASGFTFSNYGMSWVRQTPEKRLEWVATISSGGSYTYYPDSVKGRFTISRDNAKNTLYLQMSSLRSEDTAMYYCARHEGGGNPYFDYWGQGTTLTVSS
VL: B7 VL with I29L, N31H, H33N, E39H, Y92F, F94S, G96N, S97T, H98L

Sequence of GST-SNAP25 FL (P60880 whole entry): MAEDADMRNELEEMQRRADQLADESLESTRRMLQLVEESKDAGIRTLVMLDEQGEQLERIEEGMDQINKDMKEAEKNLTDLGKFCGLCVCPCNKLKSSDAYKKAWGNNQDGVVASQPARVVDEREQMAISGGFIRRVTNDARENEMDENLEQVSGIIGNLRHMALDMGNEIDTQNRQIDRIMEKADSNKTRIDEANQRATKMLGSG

For one test, the target named is GST-SNAP25 197 (UniProt P60880). Put plainly: direct ELISA; A450 on GST-SNAP25 197 divided by A450 on GST-SNAP25 FL.
Sequence of GST-SNAP25 197 (P60880 1-197 limits assumed): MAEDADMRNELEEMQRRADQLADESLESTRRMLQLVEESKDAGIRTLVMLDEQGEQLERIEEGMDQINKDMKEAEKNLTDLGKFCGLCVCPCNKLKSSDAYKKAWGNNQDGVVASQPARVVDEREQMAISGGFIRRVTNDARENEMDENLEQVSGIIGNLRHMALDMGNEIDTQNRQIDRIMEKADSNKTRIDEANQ
B1: the Ratio 197/206 was found to be 0.03.

In the case of B2, the Ratio 197/206 is 919.

As to B3, the Ratio 197/206 stood at 973.

With B4, the Ratio 197/206 was 953.

For B5, the Ratio 197/206 came to 1040.

Take B6: the Ratio 197/206 was 996.

For the molecule B7, the Ratio 197/206 worked out at 12.9.

With B8, the Ratio 197/206 amounted to 0.83.

The target is the same in the next test.
Experiment: not given
B1 had an A450 with SNAP25 197 of 0.048.

B2 showed an A450 with SNAP25 197 of 0.919.

In turn, B3 yielded an A450 with SNAP25 197 of 0.973.

Take B4: the A450 with SNAP25 197 came out at 0.953.

B5 registered an A450 with SNAP25 197 of 1.2.

Molecule B6 gave an A450 with SNAP25 197 of 0.996.

Molecule B7 registered an A450 with SNAP25 197 of 1.62.

Consider B8, for which the A450 with SNAP25 197 came out at 1.8.

The next test addresses GST-SNAP25 FL (UniProt P60880).
Experiment: not given
The molecule B1 had an A450 with SNAP25 FL of 1.45.

The molecule B2 came in with an A450 with SNAP25 FL of 0.001.

B3 displayed an A450 with SNAP25 FL of 0.001.

B4 came in with an A450 with SNAP25 FL of 0.001.

B5: the A450 with SNAP25 FL stood at 0.001.

Regarding B6, the A450 with SNAP25 FL came to 0.001.

On to B7, for which the A450 with SNAP25 FL came out at 0.125.

As for B8, the A450 with SNAP25 FL turned out to be 2.16.
